Experiment [1] has as its target T1, human TNFR2 expressed on cells (stably overexpressed on HEK293T, CHO-K1 or Jurkat cells; endogenous on THP1) (human (Homo sapiens), UniProt P20333 23-461).
T1 construct: also called 人TNFR2; hTNFR2
T1 sequence: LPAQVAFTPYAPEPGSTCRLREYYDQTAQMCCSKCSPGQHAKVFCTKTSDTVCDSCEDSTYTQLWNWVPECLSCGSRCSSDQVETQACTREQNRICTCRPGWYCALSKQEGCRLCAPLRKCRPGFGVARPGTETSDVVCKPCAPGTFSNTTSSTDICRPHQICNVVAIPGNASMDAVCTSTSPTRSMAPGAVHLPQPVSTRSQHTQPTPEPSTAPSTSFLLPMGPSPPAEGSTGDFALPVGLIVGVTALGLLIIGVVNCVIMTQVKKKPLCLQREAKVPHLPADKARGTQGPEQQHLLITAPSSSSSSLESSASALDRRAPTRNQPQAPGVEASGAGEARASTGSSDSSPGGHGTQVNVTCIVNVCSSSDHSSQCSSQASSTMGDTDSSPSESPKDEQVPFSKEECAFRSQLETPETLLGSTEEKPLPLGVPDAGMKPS
As to the kind of experiment: binding to cells stably overexpressing human TNFR2 (flow cytometry / imaging; text says HEK293T, table title says CHO-K1).

In experiment [2] the target is T2, human TNFR1 stably overexpressed on CHO-K1 cells (human (Homo sapiens), UniProt P19438 30-455).
T2 construct: also called 人TNFR1; TNFRSF1A
T2 sequence: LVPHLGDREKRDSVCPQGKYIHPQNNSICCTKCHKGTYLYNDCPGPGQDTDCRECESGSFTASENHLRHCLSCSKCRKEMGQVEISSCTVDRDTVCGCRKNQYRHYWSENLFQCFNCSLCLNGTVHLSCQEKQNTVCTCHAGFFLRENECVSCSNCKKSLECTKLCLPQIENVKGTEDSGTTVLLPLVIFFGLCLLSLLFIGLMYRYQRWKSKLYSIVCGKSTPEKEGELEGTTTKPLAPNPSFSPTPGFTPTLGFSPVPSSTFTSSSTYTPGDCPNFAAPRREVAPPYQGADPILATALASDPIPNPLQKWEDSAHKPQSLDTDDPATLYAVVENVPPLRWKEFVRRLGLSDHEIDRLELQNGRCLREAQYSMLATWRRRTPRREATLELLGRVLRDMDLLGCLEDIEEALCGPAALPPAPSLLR
Kind of experiment: flow cytometry on CHO-K1 cells stably overexpressing human TNFR1.

Experiment [3] has as its target T3, mouse TNFR2 stably overexpressed on HEK293T cells (mouse (Mus musculus), UniProt P25119 23-474).
T3 construct: also called 鼠TNFR2
T3 sequence: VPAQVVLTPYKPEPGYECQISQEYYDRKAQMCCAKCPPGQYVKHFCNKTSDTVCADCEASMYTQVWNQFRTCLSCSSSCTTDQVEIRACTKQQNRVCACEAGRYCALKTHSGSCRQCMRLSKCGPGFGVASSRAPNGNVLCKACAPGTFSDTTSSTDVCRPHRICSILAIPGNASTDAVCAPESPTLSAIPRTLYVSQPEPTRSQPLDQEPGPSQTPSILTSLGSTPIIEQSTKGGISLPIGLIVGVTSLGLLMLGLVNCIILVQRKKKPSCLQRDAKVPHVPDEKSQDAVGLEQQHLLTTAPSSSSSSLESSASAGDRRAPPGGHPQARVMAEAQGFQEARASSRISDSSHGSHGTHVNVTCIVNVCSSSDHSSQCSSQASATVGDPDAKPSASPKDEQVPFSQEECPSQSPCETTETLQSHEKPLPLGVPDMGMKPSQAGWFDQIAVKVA
Kind of experiment: flow cytometry on HEK293T cells stably overexpressing mouse TNFR2.

The values below come from patent CN117425675A (XINSHI BIOPHARMACEUTICAL CO LTD, dated 2024).

B1: R2_mAb-4 (antibody, V domains shown)
VH: QVQLVQSGAEVRKPGASVKVSCKASGYTFTSYSVTWVRQAPGQGLEWMGWINAFSGNTHYAQNLQDRVTMTTDTSTSTAYMELRSLRSDDTAVYYCAREEGSGSYEDYYGMDVWGQGTTVTVSS
VL: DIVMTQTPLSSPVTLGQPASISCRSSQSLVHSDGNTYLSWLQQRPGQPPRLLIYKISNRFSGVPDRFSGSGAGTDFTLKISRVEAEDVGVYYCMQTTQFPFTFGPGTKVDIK
notes: The mouse IgG2a chimera was used only in the tumour models; also called R2-4
In the case of B1, the EC50 in experiment [1] is 0.11 nM. The binding result in experiment [2] and in experiment [3] was “no binding (tested: 10μg/mL)” in each case.

B2: R2_mAb-2 (antibody, V domains shown)
VH: QVQLVQSGPEVKKPGASVKVSCKASGYTFTNYGISWVRQAPGQGLEWMGWINAYNGNTNYAQKLQGRVTMTTDTSTSTAYMELRSLRSDDTAVYYCARDGGYGSGTYHNDYYYYYGMDVWGQGTTVTVSS
VL: EIVLTQSPDFQSMTPEEKVTITCRASQSIGSNLHWYQQKPDQSPKLLIKFASQSISGVPSRFSGSGSGTDFTLTINSLEAEDAATYYCHQSSSLPFTFGPGTKVDIK
notes: also called R2-2
Regarding B2, the EC50 in experiment [1] is 0.35 nM. Moreover, the binding result in experiment [2] and in experiment [3] was “no binding (tested: 10μg/mL)” each time.

B3: R2_mAb-5 (antibody, V domains shown)
VH: QVQLVQSGAEVKKPGASVTVSCKASGYTFSTYGIIWVRQAPGQGLEWMGWISAFNGNANSAQKLQDRVTMTTDTSTSTAYMELRSLRSDDTAVYYCARGEDFFDYWGQGTLVTVSS
VL: DIVMTQTPLSSPVTLGQPASISCRSSQSLVHSDGNTYLSWLQQRPGQPPRLLIYKVSSRFSGVPDRFSGSGAGTDFTLKISRVEAEDVGVYYCTQSTQFPFTFGRGTKLEIK
notes: The mouse IgG2a, IgG1 and IgG1 D265A chimeras were used only in the tumour models; also called R2-5
In experiment [1], B3 showed an EC50 of 0.1 nM. The binding result in experiment [2] and in experiment [3] was “no binding (tested: 10μg/mL)” throughout.

B4: R2_mAb-6 (antibody, V domains shown)
VH: QVQLVQSGAEVKKPGASVKVSCKASGYTFLSYGLSWVRQAPGQGLEWMGWINAYNGNTNYAQNLQDRVTMTTDTSTSTAYMELRSLRSDDMAVYYCARWDILTAYYSSDAFDIWGQGTMVTVSS
VL: DIVMTQTPLSSPVTLGQPASISCRSSQSLVHSDGNTYLNWLQQRPGQPPRLLIYKVSNRFSGVPDRFSGSGAGTDFTLKISRVEAEDVGVYYCTQTTQFPITFGQGTRLEIK
notes: also called R2-6
B4: the response in experiment [1] was half-maximal at 0.14 nM (EC50). Besides, the binding result in experiment [2] and in experiment [3] was “no binding (tested: 10μg/mL)” each time.

B5: R2_mAb-3 (antibody, V domains shown)
VH: QVQLQESGPGLVKPSETLSLTCTVSGGSISSYYWSWIRQAPGKGLEWIGYIYYSGSTNYNPSLKSRVTISVDTSKNQFSLKLSSVTAADTAVYYCARDDGSSDYGMDVWGQGTTVTVSS
VL: AIQLTQSPSSLSASVGDRVTITCRASQGISSALAWYQQKPGKAPKLLIYDASSLESGVPSRFTGSGTDFTLTISSLQPEDFATYYCQQFNNYMYTFGQGTKLEIK
notes: also called R2-3
In experiment [1], B5 yielded a half-maximal effective concentration (EC50) of 0.38 nM. Also, the binding result in experiment [2] and in experiment [3] was “no binding (tested: 10μg/mL)” throughout.

B6: R2_mAb-1 (antibody, V domains shown)
VH: QVQLVESGGGVVQPGRSLRLSCAASGFTFSSYGMHWVRQAPGKGLEWVAVIWFDEDNKDYADSVKGRFTISRDNSKNTLYLQMSSLRAEDTAVYYCARDNDILTGYYYYYGMDVWGQGTTVTVSS
VL: DIQLTQSPSFLSASVGDRVTITCRASQDISSYLAWYQQKPGKAPKLLIYAASTLQSGVPSRFSGSGSGTEFTLTISSLQPEDFATYYCQQLNSYPPTFGQGTKVEIK
notes: The VH/VL pair is read from parallel lists; also called R2-1
For the molecule B6, the EC50 in experiment [1] worked out at 0.1 nM. Also, the binding result in experiment [2] and in experiment [3] was “no binding (tested: 10μg/mL)” in each case.
